# Test results reported in article PMC8008340 (Cell, 2021).
# Target: T1, WT RBD (Wuhan SARS-CoV-2 RBD) (Severe acute respiratory syndrome …, UniProt P0DTC2)
# T1 construct: also called Wuhan RBD; native RBD
# Experiment: crystal structure
# Conditions: both partners purified
binder,measurement,value
"EY6A Fab (Fab, V domains shown) VH: EVQLVESGGGVVQPGRSLRLSCAASAFTFSSYDMHWVRQAPGKGLEWVAVISYDGSNKYYADSVKGRFTISRDNSKNTLYLQMNSLRAEDTAVYYCAKDGGKLWVYYFDYWGQGTLVTVSS VL: not shown",binding result,binds
